{
  "source": "paper PMC9427789",
  "about": "“Prediction of the structural interface between fibroblast growth factor23 and Burosumab using alanine scanning and molecular docking” (Scientific Reports, 2022)",
  "details_in_all_cases": "both partners purified",
  "key": {"[1]": {"target": "T1, His-SUMO-FGF23 H117A (N-terminal domain of human FGF23) (Homo sapiens, UniProt Q9GZV9, H117A)", "T1 construct": "FGF23, human, N-terminal domain; source: E. coli BL21(DE3), purified (Ni-NTA); not shown: His, N-terminal, kept; SUMO, N-terminal, kept", "T1 sequence (Q9GZV9 25-204 H117A)": "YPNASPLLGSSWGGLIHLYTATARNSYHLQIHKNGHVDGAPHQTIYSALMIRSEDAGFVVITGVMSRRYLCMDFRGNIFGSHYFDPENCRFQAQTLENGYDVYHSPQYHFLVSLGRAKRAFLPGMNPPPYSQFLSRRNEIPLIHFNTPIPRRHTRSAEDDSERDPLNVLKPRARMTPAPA", "assay": "ELISA; indirect ELISA: FGF23 or its mutants coated at 2 µg/mL on Maxisorp plates (4 °C overnight), Burosumab or its variants three-fold serially diluted in PBS from 9 µg/mL, room temperature 2 h, anti-human IgG H&L-HRP, A450; fold change from Kd values against the wild type"}, "[2]": {"target": "T2, His-SUMO-FGF23 Y124A (N-terminal domain of human FGF23) (Homo sapiens, UniProt Q9GZV9, Y124A)", "T2 construct": "FGF23, human, N-terminal domain; source: E. coli BL21(DE3), purified (Ni-NTA); not shown: His, N-terminal, kept; SUMO, N-terminal, kept", "T2 sequence (Q9GZV9 25-204 Y124A)": "as the sequence (Q9GZV9 25-204 H117A) above, with A93H, Y100A counted along it", "assay": "ELISA; indirect ELISA: FGF23 or its mutants coated at 2 µg/mL on Maxisorp plates (4 °C overnight), Burosumab or its variants three-fold serially diluted in PBS from 9 µg/mL, room temperature 2 h, anti-human IgG H&L-HRP, A450; fold change from Kd values against the wild type"}, "[3]": {"target": "T3, His-SUMO-FGF23 R160A-R161A (N-terminal domain of human FGF23) (Homo sapiens, UniProt Q9GZV9, R160A | R161A)", "T3 construct": "FGF23, human, N-terminal domain; also called combined R160A and R161A; double alanine mutant; source: E. coli BL21(DE3), purified (Ni-NTA); not shown: His, N-terminal, kept; SUMO, N-terminal, kept", "T3 sequence (Q9GZV9 25-204 R160A/R161A)": "as the sequence (Q9GZV9 25-204 H117A) above, with A93H, R136A, R137A counted along it", "assay": "ELISA; indirect ELISA: FGF23 or its mutants coated at 2 µg/mL on Maxisorp plates (4 °C overnight), Burosumab or its variants three-fold serially diluted in PBS from 9 µg/mL, room temperature 2 h, anti-human IgG H&L-HRP, A450; fold change from Kd values against the wild type"}, "[4]": {"target": "T4, His-SUMO-FGF23 (N-terminal domain of human FGF23, wild type) (Homo sapiens, UniProt Q9GZV9)", "T4 construct": "FGF23, human, N-terminal domain; also called wild-type FGF23; source: E. coli BL21(DE3), purified (Ni-NTA); not shown: His, N-terminal, kept; SUMO, N-terminal, kept", "T4 sequence (Q9GZV9 25-204)": "as the sequence (Q9GZV9 25-204 H117A) above, with A93H counted along it", "assay": "ELISA; spot-check ELISA: FGF23 coated at 2 µg/mL on Maxisorp plates (4 °C overnight), Burosumab or its alanine mutants at two concentrations (0.04 and 1.2 µg/mL), room temperature 2 h, anti-human IgG H&L-HRP, A450; fold change from A450 against wild-type Burosumab"}, "[5]": {"target": "T4, His-SUMO-FGF23 (N-terminal domain of …)", "assay": "ELISA; indirect ELISA: FGF23 or its mutants coated at 2 µg/mL on Maxisorp plates (4 °C overnight), Burosumab or its variants three-fold serially diluted in PBS from 9 µg/mL, room temperature 2 h, anti-human IgG H&L-HRP, A450; fold change from Kd values against the wild type"}},
  "data": [
    {"binder": "Burosumab (wild type) (antibody, V domains shown, heavy chain of Burosumab; light chain of Burosumab; Whole antibody, detected with anti-human IgG H&L. The results say HEK293T, the methods HEK293-F FreeStyle; Residue numbers are Chothia; also called Crysvita; WT Burosumab; source: HEK293-F FreeStyle, transiently transfected, purified (Protein A agarose)) VH: QVQLVQSGAEVKKPGASVKVSCKASGYTFTNHYMHWVRQAPGQGLEWMGIINPISGSTSNAQKFQGRVTMTRDTSTSTVYMELSSLRSEDTAVYYCARDIVDAFDFWGQGTMVTVSS VL: AIQLTQSPSSLSASVGDRVTITCRASQGISSALVWYQQKPGKAPKLLIYDASSLESGVPSRFSGSGSGTDFTLTISSLQPEDFATYYCQQFNDYFTFGPGTKVDIK", "values": [
      {"measurement": "fold decrease in binding against wild-type FGF23", "setting": "[1]", "value": "> 100", "unit": "fold"},
      {"measurement": "fold decrease in binding against wild-type FGF23", "setting": "[2]", "value": "~50", "unit": "fold"},
      {"measurement": "fold decrease in binding against wild-type FGF23", "setting": "[3]", "value": 7, "unit": "fold"},
      {"measurement": "binding result", "setting": "[4]", "value": "binds"}
    ]},
    {"binder": "Burosumab VL:F96A (antibody, V domains shown, as the heavy chain of m1; as the light chain of m1; also called F96A (LCDR3); source: HEK293-F FreeStyle, transiently transfected, purified (Protein A agarose)) VH: QVQLVQSGAEVKKPGASVKVSCKASGYTFTNHYMHWVRQAPGQGLEWMGIINPISGSTSNAQKFQGRVTMTRDTSTSTVYMELSSLRSEDTAVYYCARDIVDAFDFWGQGTMVTVSS VL: AIQLTQSPSSLSASVGDRVTITCRASQGISSALVWYQQKPGKAPKLLIYDASSLESGVPSRFSGSGSGTDFTLTISSLQPEDFATYYCQQFNDYATFGPGTKVDIK", "values": [
      {"measurement": "fold decrease in binding against wild-type Burosumab", "setting": "[4]", "value": 2.32, "unit": "fold"}
    ]},
    {"binder": "Burosumab VL:D50A (antibody, V domains shown, as the heavy chain of m1; as the light chain of m1; also called D50A (LCDR2); source: HEK293-F FreeStyle, transiently transfected, purified (Protein A agarose)) VH: QVQLVQSGAEVKKPGASVKVSCKASGYTFTNHYMHWVRQAPGQGLEWMGIINPISGSTSNAQKFQGRVTMTRDTSTSTVYMELSSLRSEDTAVYYCARDIVDAFDFWGQGTMVTVSS VL: AIQLTQSPSSLSASVGDRVTITCRASQGISSALVWYQQKPGKAPKLLIYAASSLESGVPSRFSGSGSGTDFTLTISSLQPEDFATYYCQQFNDYFTFGPGTKVDIK", "values": [
      {"measurement": "binding result", "setting": "[4]", "value": "no binding"},
      {"measurement": "fold decrease in binding against wild-type Burosumab", "setting": "[4]", "value": "> 100", "unit": "fold"}
    ]},
    {"binder": "Burosumab variant with combined VH:V97A and VL:A32S mutations (antibody, V domains shown, as the heavy chain of m1; as the light chain of m1; also called combined Burosumab variant; double mutant; source: HEK293-F FreeStyle, transiently transfected, purified (Protein A agarose)) VH: QVQLVQSGAEVKKPGASVKVSCKASGYTFTNHYMHWVRQAPGQGLEWMGIINPISGSTSNAQKFQGRVTMTRDTSTSTVYMELSSLRSEDTAVYYCARDIADAFDFWGQGTMVTVSS VL: AIQLTQSPSSLSASVGDRVTITCRASQGISSSLVWYQQKPGKAPKLLIYDASSLESGVPSRFSGSGSGTDFTLTISSLQPEDFATYYCQQFNDYFTFGPGTKVDIK", "values": [
      {"measurement": "fold improvement of binding against wild-type Burosumab", "setting": "[5]", "value": 3.7, "unit": "fold"}
    ]},
    {"binder": "Burosumab VH:D98A (antibody, V domains shown, as the heavy chain of m1; as the light chain of m1; source: HEK293-F FreeStyle, transiently transfected, purified (Protein A agarose)) VH: QVQLVQSGAEVKKPGASVKVSCKASGYTFTNHYMHWVRQAPGQGLEWMGIINPISGSTSNAQKFQGRVTMTRDTSTSTVYMELSSLRSEDTAVYYCARDIVAAFDFWGQGTMVTVSS VL: AIQLTQSPSSLSASVGDRVTITCRASQGISSALVWYQQKPGKAPKLLIYDASSLESGVPSRFSGSGSGTDFTLTISSLQPEDFATYYCQQFNDYFTFGPGTKVDIK", "values": [
      {"measurement": "fold decrease in binding against wild-type Burosumab", "setting": "[4]", "value": 2.62, "unit": "fold"}
    ]},
    {"binder": "Burosumab VL:A32S (antibody, V domains shown, as the heavy chain of m1; as the light chain of m1; source: HEK293-F FreeStyle, transiently transfected, purified (Protein A agarose)) VH: QVQLVQSGAEVKKPGASVKVSCKASGYTFTNHYMHWVRQAPGQGLEWMGIINPISGSTSNAQKFQGRVTMTRDTSTSTVYMELSSLRSEDTAVYYCARDIVDAFDFWGQGTMVTVSS VL: AIQLTQSPSSLSASVGDRVTITCRASQGISSSLVWYQQKPGKAPKLLIYDASSLESGVPSRFSGSGSGTDFTLTISSLQPEDFATYYCQQFNDYFTFGPGTKVDIK", "values": [
      {"measurement": "fold improvement of binding affinity against wild-type Burosumab", "setting": "[5]", "value": 1.6, "unit": "fold"}
    ]},
    {"binder": "Burosumab VH:V97A (antibody, V domains shown, as the heavy chain of m1; as the light chain of m1; source: HEK293-F FreeStyle, transiently transfected, purified (Protein A agarose)) VH: QVQLVQSGAEVKKPGASVKVSCKASGYTFTNHYMHWVRQAPGQGLEWMGIINPISGSTSNAQKFQGRVTMTRDTSTSTVYMELSSLRSEDTAVYYCARDIADAFDFWGQGTMVTVSS VL: AIQLTQSPSSLSASVGDRVTITCRASQGISSALVWYQQKPGKAPKLLIYDASSLESGVPSRFSGSGSGTDFTLTISSLQPEDFATYYCQQFNDYFTFGPGTKVDIK", "values": [
      {"measurement": "fold improvement of binding affinity against wild-type Burosumab", "setting": "[4]", "value": 1.2, "unit": "fold"}
    ]}
  ]
}
